Target: BG505.SOSIP.664 Env trimer (heterologous clade A native-like trimer containing the N332 glycan) (HIV-1 clade A, isolate BG505 …, stabilised)
Experiment: cell-based or functional assay

B1: QA013.2 CDRH3 point mutant antibody D106V (mature VH D106V paired with the mature light chain) (antibody, V domains shown)
VH: DIRIAESGGGLVQPGESLRLACEIIELGFRRAWTTWVRQAPGKGLEWVADINEDGSEKKYGPSVTGRFTISRDNGKNLVFLQMNSLRVEDTATYYCAREAYHLVYVDRIPRGNWFDPWGPGTLVTVSS
VL: QSVLTQPPSVSGAPGQRVVISCTGSRSNIGAGYDVHWYQQSPGKVPRIIIYGSNSRSSGVPARFSGSKSGTSASLAITGLQAEDEADYYCQSYDTTLTASVFGGGTKVTVL
  average fold increase in neutralisation IC50 across all tested pseudoviruses relative to the mature bnAb (TZM-bl assay): 40 fold

— paper doi:10.1101/2021.03.15.435484, “Functional development of a V3-specific broadly neutralizing antibody isolated from a case of HIV superinfection” (bioRxiv, 2021)
